According to publication PMC8260656:

Biological target: EZH2 recombinant protein His-tagged (Epigentek, E24031-1) (human) (UniProt Q15910)
Assay: MST; labeled His-tagged EZH2 at 5 nM fixed; ERG from 0.4uM to 2.44E-05uM; incubated at room temperature for 5 min; Monolith NT.115, Premium capillaries, 30% LED excitation, high MST power

Kd: 290 nM
B1: ERG recombinant protein (Origene, TP308093) (natural protein)
chain: MASTIKEALSVVSEDQSLFECAYGTPHLAKTEMTASSSSDYGQTSKMSPRVPQQDWLSQPPARVTIKMECNPSQVNGSRNSPDECSVAKGGKMVGSPDTVGMNYGSYMEEKHMPPPNMTTNERRVIVPADPTLWSTDHVRQWLEWAVKEYGLPDVNILLFQNIDGKELCKMTKDDFQRLTPSYNADILLSHLHYLRETPLPHLTSDDVDKALQNSPRLMHARNTGGAAFIFPNTSVYPEATQRITTRPDLPYEPPRRSAWTGHGHPTPQSKAAQPSPSTVPKTEDQRPQLDPYQILGPTSSRLANPGSGQIQLWQFLLELLSDSSNSSCITWEGTNGEFKMTDPDEVARRWGERKSKPNMNYDKLSRALRYYYDKNIMTKVHGKRYAYKFDFHGIAQALQPHPPESSLYKYPSDLPYMGSYHAHPQKMNFVAPHPPALPVTSSSFFAAPNPYWNSPTGGIYPNTRLPTSHMPSHLGTYY
